According to patent publication CN114106164A (HANGZHOU PINK BIOTECHNOLOGY LTD COMPANY, dated 2022):

Legend:
[1] = target: T1, SARS-CoV-2-RBD蛋白 (重组6X His标记的RBD蛋白) (SARS-CoV-2, UniProt P0DTC2 319-541); experiment: indirect ELISA, ascites, antigen coated 3ug/ml
[2] = target: T1, SARS-CoV-2-RBD蛋白 (重组6X His标记的RBD蛋白); experiment: indirect ELISA, purified antibody, antigen coated 3ug/ml
[3] = target: T2, SARS-CoV Spike/RBD Protein(RBD,His Tag)，货号40150-V08B2 (SARS-CoV, UniProt P59594 306-527); experiment: ELISA, cross-reactivity test
T2 construct: domain: RBD

[4] = target: T3, MERS-CoV Spike/RBD Protein fragment(RBD,aa 367-606,His Tag)，货号40071-V08B1 (MERS-CoV, UniProt K9N5Q8 367-606); experiment: ELISA, cross-reactivity test
T3 construct: range 367-606; Bought reagent

Binder	ELISA OD at 稀释倍数 100 [1]	ELISA OD at 稀释倍数 500 [1]	ELISA OD at 稀释倍数 2500 [1]	ELISA OD at 稀释倍数 12500 [1]	ELISA OD at 稀释倍数 62500 [1]	ELISA OD at 稀释倍数 312500 [1]	ELISA OD at 稀释倍数 1562500 [1]	ELISA OD at 1.28ng/ml [2]	ELISA OD at 6.4ng/ml [2]	ELISA OD at 32ng/ml [2]	ELISA OD at 160ng/ml [2]	ELISA OD at 800ng/ml [2]	ELISA OD at 4ug/ml [2]	ELISA OD at 20ug/ml [2]	binding result [3]	binding result [4]
B1-2 (antibody, V domains shown) VH: QVQLVESGGGFVQPGGSLRLSCAVSGGTFSTYGMGWFRQAPGKEREIVAAIRRSGSTYYADSVRGRFTISRDNAKNSVLLQMNSLKPEDTAVYYCAARRAGREYEYWGQGTQVTVSS	1.85	1.61	1	0.297	0.118	0.091	0.081	0.073	0.085	0.127	0.26	0.647	1.49	2.04		
A2-2 (antibody, V domains shown) VH: not shown VL: EIVLTQSPGTLSLSPGERATLSCRASQTVRSDLAWYQQKPGQAPRLLIYGASTRATDISDRFSGSGSGTEFTLTISSLQSEDFAVYYCQQYYEWPPHSDSFGGGTKVEIK	1.53	1.49	1.46	1.06	0.508	0.155	0.077	0.115	0.229	0.447	0.689	1.27	1.62	1.72		
A2-4 (antibody, V domains shown) VH: EVKLMESGGGLVQPGGSLKLSCAASGFDFSRYWMSWVRQAPGEGLEWIGEINPDSSTISYTPSLKDKFIISRDNAKNTLYLQMSKVRSEDTALYYCARRGLLLLTMDYWGQGTSVTVSS VL: DIVMTQSPKSLSMSVGERVTLSCKASENVDTYVSWYQQKPEQSPKLLIYGASNRYTGVPDRFTGSGSATYFTLTISSVQAEDLADYHCGQTYSYPFTFGSGTKLEIK	1.39	1.36	1.43	0.84	0.373	0.121	0.072	0.106	0.126	0.149	0.279	0.584	1.33	1.95		
B1-1 (antibody, V domains shown) VH: QVQLVESGGGLVQPGGSLRLSCAASGFTFDDYAMSWVRQAPGKGLEWVSNIYSYISTTHYADSVKGRFTISTDNAKNTLYLQMNSLKPEDTAVYYCAARRLDTTDYKYWGQGTQVTVSS	1.43	1.31	1.4	1.26	0.545	0.19	0.084	0.072	0.088	0.154	0.38	0.929	1.19	1.35		
Mouse anti-SARS-COV-2 Mab1(RBD-Ab) (antibody, V domains shown, also called B1-5; B1-5号抗体) VH: VKLQESGAELVRPGTSVKVSCKASGYAFTNYLIEWVKQRPGQGLEWIGVINPGSGGTNYNEKFKGKATLTADKSSSTAYMQLSSLTSDDSAVYFCARGRADYWGQGTSVTVSS VL: DILMTQSPSSMSVSLGDTVSITCHASQGFSSNIGWLQQKPGKSFKGLIYHGTNLEDGVPSRFSGSGSGADYSLTISSLESEDFADYYCVQYAQFPYTFGGGTKLEIK															no binding	no binding
